17 proteins from paper PMC10036635, “FTD-tau S320F mutation stabilizes local structure and allosterically promotes amyloid motif-dependent aggregation” (Nature Communications, 2023) can be followed below.

First the molecules themselves.
B1: S320V tau peptide (295-330) (peptide, UniProt P10636-8 295-330, looked up)
peptide: Ac-DNIKHVPGGGSVQIVYKPVDLSKVTVKCGSLGNIHH-NH2
notes: numbers count on: 2N4R tau (P10636-8); source: synthetic peptide (Genscript, > 95% purity)
B2: S320F_(306-330) tau peptide (peptide, UniProt P10636-8 306-330, looked up)
peptide: Ac-VQIVYKPVDLSKVTFKCGSLGNIHH-NH2
notes: as for B1
B3: WT_(306-324) tau peptide (peptide, UniProt P10636-8 306-324, looked up)
peptide: Ac-VQIVYKPVDLSKVTSKCGS-NH2
notes: as for B1
B4: WT_(295-330) tau peptide (peptide, UniProt P10636-8 295-330, looked up)
peptide: Ac-DNIKHVPGGGSVQIVYKPVDLSKVTSKCGSLGNIHH-NH2
notes: as for B1
B5: S320F_(295-324) tau peptide (peptide, UniProt P10636-8 295-324, looked up)
peptide: DNIKHVPGGGSVQIVYKPVDLSKVTFKCGS
notes: numbers count on: 2N4R tau (P10636-8); probably synthesised, acetylated and amidated like the others
B6: L315S_S320F_(295-330) tau peptide (peptide, UniProt P10636-8 295-330, looked up)
peptide: Ac-DNIKHVPGGGSVQIVYKPVDSSKVTFKCGSLGNIHH-NH2
notes: as for B1
B7: WT_(295-324) tau peptide (peptide, UniProt P10636-8 295-324, looked up)
peptide: B5 peptide with F26S
notes: as for B5
B8: S324F_(295-330) tau peptide (peptide, UniProt P10636-8 295-330, looked up)
peptide: Ac-DNIKHVPGGGSVQIVYKPVDLSKVTSKCGFLGNIHH-NH2
notes: as for B1
B9: P301S_(295-330) tau peptide (peptide, UniProt P10636-8 295-330, looked up)
peptide: Ac-DNIKHVSGGGSVQIVYKPVDLSKVTSKCGSLGNIHH-NH2
notes: as for B1
B10: WT_(306-330) tau peptide (peptide, UniProt P10636-8 306-330, looked up)
peptide: Ac-VQIVYKPVDLSKVTSKCGSLGNIHH-NH2
notes: as for B1
B11: S320F_L325S_(295-330) tau peptide (peptide, UniProt P10636-8 295-330, looked up)
peptide: Ac-DNIKHVPGGGSVQIVYKPVDLSKVTFKCGSSGNIHH-NH2
notes: as for B1
B12: P301S_I328S_(295-330) tau peptide (peptide, UniProt P10636-8 295-330, looked up)
peptide: Ac-DNIKHVSGGGSVQIVYKPVDLSKVTSKCGSLGNSHH-NH2
notes: as for B1
B13: S320F_(295-330) tau peptide (peptide, UniProt P10636-8 295-330, looked up)
peptide: Ac-DNIKHVPGGGSVQIVYKPVDLSKVTFKCGSLGNIHH-NH2
notes: as for B1
B14: S320F_I328S_(295-330) tau peptide (peptide, UniProt P10636-8 295-330, looked up)
peptide: Ac-DNIKHVPGGGSVQIVYKPVDLSKVTFKCGSLGNSHH-NH2
notes: as for B1
B15: S320F_(306-324) tau peptide (peptide, UniProt P10636-8 306-324, looked up)
peptide: Ac-VQIVYKPVDLSKVTFKCGS-NH2
notes: as for B1
B16: S320I tau peptide (295-330) (peptide, UniProt P10636-8 295-330, looked up)
peptide: Ac-DNIKHVPGGGSVQIVYKPVDLSKVTIKCGSLGNIHH-NH2
notes: as for B1
B17: S320I_I328V tau peptide (295-330) (peptide, UniProt P10636-8 295-330, looked up)
peptide: Ac-DNIKHVPGGGSVQIVYKPVDLSKVTIKCGSLGNVHH-NH2
notes: as for B1

Changes are numbered by the printed parent chain. Names and notes keep the numbering of the source.

This data set deals with the molecule itself. Put plainly: ThT fluorescence aggregation assay + negative-stain TEM; self-assembly of tau peptides at 200 µM; 1x PBS, 2 mM TCEP, pH 7, 25 µM ThT, 72 h; TEM of the endpoint.
Take B1: the binding result is recorded as “binds”.
In the case of B2, the binding result is “binds”.
B3: the binding result is on record as “binds”.
As for B4, the entry is “binds”; as for B5, “binds”; as for B6, “binds”.
For B7, the binding result is given as “binds”.
B8: the binding result is reported as “binds”.
As for B9, the binding result is “binds”.
Next, B10: “binds”; B11: “binds”; B12: “binds”.
As to B13, the binding result is listed as “binds”.
Regarding B14, the binding result is listed as “binds”.
Take B15: the binding result is listed as “binds”.
Take B16: the binding result is listed as “binds”.
As for B17, the entry is “binds”.
